Source: paper PMC10333338, “Mechanism of ATP hydrolysis dependent rotation of bacterial ATP synthase” (Nature Communications, 2023)

Target: T1, α subunit of the F1 domain of FoF1 ATP synthase from Geobacillus stearothermophilus (Bacillus PS3 sp.) (G. stearothermophilus (Bacillus PS3 sp.), UniProt P09219 1-502)
T1 construct: ATP synthase subunit alpha, Bacillus PS3 sp; (G. stearothermophilus); subunit of the ΔεCT-FoF1 complex; Three copies stand in the F1 domain (α3β3γ); The complex was purified on Ni-NTA; also called αE; αT
Assay: cryo-EM structure; purified ΔεCT-FoF1 in DDM, 9 µM enzyme; 26 mM ATP-Mg, 20 s at 25 °C (high [ATP], nucleotide-depleted enzyme) or 25 µM ATP with pyruvate kinase and PEP, 60 s at 25 °C (low [ATP]); flash frozen; focused refinement on the F1 domain
Conditions: both partners purified

T1 sequence (P09219 whole entry, the tested form may be a part): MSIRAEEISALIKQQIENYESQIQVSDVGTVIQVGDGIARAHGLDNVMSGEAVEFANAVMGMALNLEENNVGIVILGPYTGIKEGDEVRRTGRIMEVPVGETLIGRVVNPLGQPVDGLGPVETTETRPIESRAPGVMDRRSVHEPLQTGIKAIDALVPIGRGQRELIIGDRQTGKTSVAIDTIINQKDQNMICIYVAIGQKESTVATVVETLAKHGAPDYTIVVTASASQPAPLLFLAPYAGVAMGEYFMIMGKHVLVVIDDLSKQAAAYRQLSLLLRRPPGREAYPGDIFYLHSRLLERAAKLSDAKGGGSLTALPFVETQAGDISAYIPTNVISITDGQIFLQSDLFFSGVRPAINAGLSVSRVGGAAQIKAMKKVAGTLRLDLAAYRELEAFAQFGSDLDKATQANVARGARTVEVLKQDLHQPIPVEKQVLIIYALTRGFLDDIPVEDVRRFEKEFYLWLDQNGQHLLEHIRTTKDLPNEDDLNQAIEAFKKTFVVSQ

B1: γ subunit of the F1 domain of FoF1 ATP synthase from Geobacillus stearothermophilus (Bacillus PS3 sp.) (natural protein, G. stearothermophilus (Bacillus PS3 sp.), UniProt P09222 5-286, looked up)
chain: ASLRDIKTRINATKKTSQITKAMEMVLTSKLNRAEKREIVRPYMEKIQEVVANVALAARASHPMLVSRPVKKTGYLVITSDRGLAGAYNSNVLRLVYQTIQKRHASPDEYAIIVIGRVGLSFFRKRNMPVILDITRLPDQPSFADIKEIARKTVGLFADGTFDELYMYYNHYVSAIQQEVTERKLLPLTDLAENKQRTVYEFEPSQEEILDVLLPQYAESLIYGALLDAKASEHAARMTAMKNATDNANELIRTLTLSYNRARQAAITQEITEIVAGANALQ
notes: ATP synthase gamma chain, Bacillus PS3 sp; (G. stearothermophilus); subunit of the ΔεCT-FoF1 complex; One copy in the centre of α3β3; also called γ-stalk; central γ subunit
binding result: binds
